B1: Eps15(569-671) (domain or fragment)
chain: SGVTDENEVTTAVTEKVCSELDNNRHSKEEDPFNVDSSSLTGPVADTNLDFFQSDPFVGSDPFKDDPFGKIDPFGGDPFKGSDPFASDCFFRQSTDPFATSST
B2: Eps15(648-780) (domain or fragment)
chain: KGSDPFASDCFFRQSTDPFATSSTDPFSAANNSSITSVETLKHNDPFAPGGTVVAASDSATDPFASVFGNESFGGGFADFSTLSKVNNEDPFRSATSSSVSNVVITKNVFEETSVKSEDEPPALPPKIGTPTR
B3: N-terminal domain of the clathrin heavy chain, TD40 (domain or fragment)
chain: MAQILPIRFQEHLQLQNLGINPANIGFSTLTMESDKFICIREKVGEQAQVVIIDMNDPSNPIRRPISADSAIMNPASKVIALKAGKTLQIFNIEMKSKMKAHTMTDDVTFWKWISLNTVALVTDNAVYHWSMEGESQPVKMFDRHSSLAGCQIINYRTDAKQKWLLLTGISAQQNRVVGAMQLYSVDRKVSQPIEGHAASFAQFKMEGNAEESTLFCFAVRGQAGGKLHIIEVGTPPTGNQPFPKKAVDVFFPPEAQNDFPVAMQISEKHDVVFLITKYGYIHLYDLETGTCIYMNRISGETIFVTAPHEATAGIIGVNRKGQVLSVCVEEENIIPYITNVLQNPDLALRMAVRNNLAGAEEL

The target in test [1] is B3. Description: NMR titration.
In test [2] the target is T1, Eps15IDR (C-terminal intrinsically disordered region of human Eps15, residues 481 to 897) (human, UniProt P42566 481-896).
T1 sequence: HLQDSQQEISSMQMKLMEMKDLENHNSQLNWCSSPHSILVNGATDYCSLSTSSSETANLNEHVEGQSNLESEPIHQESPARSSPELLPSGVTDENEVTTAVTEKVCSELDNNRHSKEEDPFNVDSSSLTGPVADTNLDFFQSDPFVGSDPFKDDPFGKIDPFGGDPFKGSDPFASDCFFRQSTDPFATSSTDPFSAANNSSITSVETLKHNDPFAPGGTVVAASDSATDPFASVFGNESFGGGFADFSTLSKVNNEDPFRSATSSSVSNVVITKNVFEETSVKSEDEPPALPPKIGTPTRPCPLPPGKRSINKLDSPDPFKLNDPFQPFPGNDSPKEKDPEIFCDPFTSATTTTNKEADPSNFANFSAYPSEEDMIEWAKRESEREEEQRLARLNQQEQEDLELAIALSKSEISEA
Description: NMR titration.

On to B1, for which the binding result in test [1] is listed as “binds”.

Take B2: the binding result in test [1] is “binds”. As to B3, in test [2], the binding result is listed as “binds”.
